Target: GMPCPP-stabilised, rhodamine labelled microtubules (porcine brain tubulin) (porcine (purified from porcine brain)) (UniProt P02550)
Assay: single-molecule TIRF microscopy

Chain of UniProt P02550 (P02550 whole entry): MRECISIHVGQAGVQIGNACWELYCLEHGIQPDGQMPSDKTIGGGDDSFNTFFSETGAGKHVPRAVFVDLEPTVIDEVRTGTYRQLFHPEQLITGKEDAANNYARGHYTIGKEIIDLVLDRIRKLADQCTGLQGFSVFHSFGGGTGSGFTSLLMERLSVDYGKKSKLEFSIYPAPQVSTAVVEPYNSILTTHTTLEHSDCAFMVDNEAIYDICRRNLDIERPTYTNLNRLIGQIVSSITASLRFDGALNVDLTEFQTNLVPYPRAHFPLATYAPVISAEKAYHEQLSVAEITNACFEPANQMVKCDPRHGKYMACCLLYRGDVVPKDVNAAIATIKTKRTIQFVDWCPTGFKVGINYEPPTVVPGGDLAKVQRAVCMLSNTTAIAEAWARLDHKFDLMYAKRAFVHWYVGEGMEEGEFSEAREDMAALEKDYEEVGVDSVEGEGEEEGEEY

Substance | microtubule end residence time
Rat kinesin-1 rKin430-GFP-h6 G262K (domain or fragment) | 0.74 s
Rat kinesin-1 rKin430-GFP-h6 S266R (domain or fragment) | 1.39 s
Rat kinesin-1 rKin430-GFP-h6 triple mutant (G262K, N263E, S266R) (domain or fragment) | 0.97 s
Rat kinesin-1 rKin430-GFP-h6, wild type (domain or fragment) | 0.35 s

Further lines, results first:

microtubule end residence time | Substance
0.98 s | Rat kinesin-1 rKin430-GFP-h6 N263E (domain or fragment)
0.8 s | Rat kinesin-1 rKin430-GFP-h6 S266A (domain or fragment)
